This note sets out measurements from patent publication US20240309389A1, “Chimeric FCeRI a-Chain Gene, Chimeric FCeRI a-Chain Protein, Cells, Analysis Kit and Analysis Method” (TEIKYO HEISEI UNIVERSITY, priority 2021, published 2024).

For this test, the target named is Human-Rat chimeric FcεRI α-chain protein (chimeric FcεRI on the cell membrane of HuRa clones) (human (extracellular domain) and rat (transmembrane and intracellular domains); rat) (UniProt P13386). Briefly: cell-based or functional assay.
Human-Rat chimeric FcεRI α-chain protein (chimeric FcεRI on the cell membrane of HuRa clones) (human (extracellular domain) and rat (transmembrane and intracellular domains); rat), sequence (chain, as listed by the source mutant, form in doubt, chain 1 of 3): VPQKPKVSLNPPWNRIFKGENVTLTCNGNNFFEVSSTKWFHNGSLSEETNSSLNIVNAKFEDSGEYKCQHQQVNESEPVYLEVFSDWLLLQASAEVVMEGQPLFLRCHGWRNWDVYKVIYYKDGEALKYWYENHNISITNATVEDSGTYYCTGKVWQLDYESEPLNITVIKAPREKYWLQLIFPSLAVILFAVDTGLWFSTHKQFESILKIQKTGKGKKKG
Human-Rat chimeric FcεRI α-chain protein (chimeric FcεRI on the cell membrane of HuRa clones) (human (extracellular domain) and rat (transmembrane and intracellular domains); rat), sequence (P13386 whole entry, stated change not applied, form in doubt, chain 2 of 3, the tested form may be a part): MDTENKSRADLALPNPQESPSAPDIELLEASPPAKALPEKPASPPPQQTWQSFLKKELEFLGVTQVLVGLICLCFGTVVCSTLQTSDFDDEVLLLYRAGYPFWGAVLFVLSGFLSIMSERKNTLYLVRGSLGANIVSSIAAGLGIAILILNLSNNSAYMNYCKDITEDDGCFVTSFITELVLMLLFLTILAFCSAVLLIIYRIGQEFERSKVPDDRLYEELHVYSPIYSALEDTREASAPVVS
Human-Rat chimeric FcεRI α-chain protein (chimeric FcεRI on the cell membrane of HuRa clones) (human (extracellular domain) and rat (transmembrane and intracellular domains); rat), sequence (P20411 19-86, stated change not applied, form in doubt, chain 3 of 3): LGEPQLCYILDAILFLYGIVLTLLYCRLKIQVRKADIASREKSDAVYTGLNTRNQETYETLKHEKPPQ

For the substance “purified human IgE (ab65866, Abcam) (from UniProt P01854 1-428) (antibody)”, the luciferase expression level (NF-AT reporter), IgE-sensitized (aIgE) against not sensitized (no IgE) cells, stimulated with anti-human IgE antibody; seven HuRa clones is 100 times.
